# From article PMC4528719, “Functional role of dimerization and CP190 interacting domains of CTCF protein in Drosophila melanogaster” (BMC Biology, 2015)
# T1: thioredoxin-tagged CP190-BTB (Drosophila)
# T1 sequence (Q24478 whole entry, looked up): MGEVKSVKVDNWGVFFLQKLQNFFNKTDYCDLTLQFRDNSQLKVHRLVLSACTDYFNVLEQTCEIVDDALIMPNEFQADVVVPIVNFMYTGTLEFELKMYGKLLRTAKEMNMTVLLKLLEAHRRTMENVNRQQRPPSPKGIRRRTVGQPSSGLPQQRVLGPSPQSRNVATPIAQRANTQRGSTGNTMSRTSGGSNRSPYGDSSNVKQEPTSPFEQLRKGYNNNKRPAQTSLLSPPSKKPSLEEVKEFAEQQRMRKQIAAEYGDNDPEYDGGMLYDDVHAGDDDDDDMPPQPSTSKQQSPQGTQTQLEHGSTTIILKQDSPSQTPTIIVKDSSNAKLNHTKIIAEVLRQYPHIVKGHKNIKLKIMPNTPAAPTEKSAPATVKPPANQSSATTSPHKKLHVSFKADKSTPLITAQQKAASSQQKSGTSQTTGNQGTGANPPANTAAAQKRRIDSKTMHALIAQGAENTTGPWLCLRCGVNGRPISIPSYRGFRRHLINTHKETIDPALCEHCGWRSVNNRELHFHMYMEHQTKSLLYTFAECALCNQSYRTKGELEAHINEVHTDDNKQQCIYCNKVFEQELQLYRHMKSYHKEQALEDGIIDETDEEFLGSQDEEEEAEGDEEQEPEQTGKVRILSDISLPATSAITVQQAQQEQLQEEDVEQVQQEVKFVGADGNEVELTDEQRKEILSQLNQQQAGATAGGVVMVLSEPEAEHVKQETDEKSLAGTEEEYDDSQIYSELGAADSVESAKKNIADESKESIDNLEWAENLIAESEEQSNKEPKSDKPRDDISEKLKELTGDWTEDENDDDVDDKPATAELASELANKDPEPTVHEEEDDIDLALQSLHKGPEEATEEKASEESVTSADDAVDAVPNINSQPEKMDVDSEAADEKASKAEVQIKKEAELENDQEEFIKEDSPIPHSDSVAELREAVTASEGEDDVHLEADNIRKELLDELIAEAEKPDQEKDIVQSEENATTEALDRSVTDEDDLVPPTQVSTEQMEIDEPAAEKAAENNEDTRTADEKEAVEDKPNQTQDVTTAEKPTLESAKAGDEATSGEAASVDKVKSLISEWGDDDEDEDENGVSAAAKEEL
# T2: dCTCF–CTD 612–818 protein (Drosophila melanogaster, UniProt Q9VS55 612-818)
# T2 construct: also called CTD protein; source: E. coli BL21, purified (Ni-NTA)
# T2 sequence (looked up): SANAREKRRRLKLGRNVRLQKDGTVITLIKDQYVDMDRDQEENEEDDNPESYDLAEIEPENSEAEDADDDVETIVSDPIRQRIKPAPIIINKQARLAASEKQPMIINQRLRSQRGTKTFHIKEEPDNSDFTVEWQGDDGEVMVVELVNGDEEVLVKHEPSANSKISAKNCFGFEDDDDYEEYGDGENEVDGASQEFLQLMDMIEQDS
# Columns and labels:
# [1] = target: T1, thioredoxin-tagged CP190-BTB (Drosophila); assay: cross-linking; CP190-BTB constant at 20 μM, alone or mixed with CTCF-CTD at stated molar ratios, 2 h (legend of Fig. 4b: 1 h) at room temperature, then glutaraldehyde; buffer B; SDS-PAGE, Coomassie or silver staining
# [2] = target: T2, dCTCF–CTD 612–818 protein; assay: pull-down; GST–CP190 fragments on glutathione agarose, recombinant dCTCF-CTD in solution; 2 h room temperature, buffer C; washes with 500 mM NaCl (Fig. 3f); conditions: both partners purified
# [3] = target: the molecule itself; assay: cross-linking; one protein alone at 5 μM, increasing glutaraldehyde, 10 min at room temperature, 20 mM HEPES-KOH pH 7.7, 150 mM NaCl, 20 mM imidazole, 1 mM β-mercaptoethanol; SDS-PAGE, silver staining
molecule,measurement,setting,value
thioredoxin-tagged CP190-BTB (domain or fragment),stoichiometry N,[1],2
dCTCF–CTD 612–818 protein (domain or fragment) SANAREKRRRLKLGRNVRLQKDGTVITLIKDQYVDMDRDQEENEEDDNPESYDLAEIEPENSEAEDADDDVETIVSDPIRQRIKPAPIIINKQARLAASEKQPMIINQRLRSQRGTKTFHIKEEPDNSDFTVEWQGDDGEVMVVELVNGDEEVLVKHEPSANSKISAKNCFGFEDDDDYEEYGDGENEVDGASQEFLQLMDMIEQDS,stoichiometry N,[1],2 BTB per CTD
"GST–CP190 BTB domain (1–126) (domain or fragment, Drosophila, UniProt Q24478 1-126, looked up) MGEVKSVKVDNWGVFFLQKLQNFFNKTDYCDLTLQFRDNSQLKVHRLVLSACTDYFNVLEQTCEIVDDALIMPNEFQADVVVPIVNFMYTGTLEFELKMYGKLLRTAKEMNMTVLLKLLEAHRRTM",binding result,[2],binds
"thioredoxin NTD 1–205 fusion protein of dCTCF (domain or fragment, Drosophila melanogaster, UniProt Q9VS55 1-205, looked up, pET32a(+) vector; purified on Ni-NTA, so a His tag is likely present; source: E. coli BL21, purified (Ni-NTA)) MPRRTKKDEDPEDLQTFLNNFHKEIEGNSDEKVVNTILEAISAEAIDLDENGAEAGGSKPMEEAEADLDHAEEAEEEEEDDEDKYFIDDEGNCYIKTTPKKQKELQKKLKQAAAKPGKATRSVVSTATNKSINLRPAKSTPKATTSKPPPEPKAISVRPARAAAAKAKQSAMPPPPALVVKVPAPRGRPRKNPVIPKPEPMDLER",binding result,[3],binds
"thioredoxin-tagged dCTCF NTD 1–163 (domain or fragment, Drosophila melanogaster, UniProt Q9VS55 1-163, looked up, dCTCF, Drosophila melanogaster, residues 1-163; pET32a(+) vector; purified on Ni-NTA, so a His tag is likely present; source: E. coli BL21, purified (Ni-NTA)) MPRRTKKDEDPEDLQTFLNNFHKEIEGNSDEKVVNTILEAISAEAIDLDENGAEAGGSKPMEEAEADLDHAEEAEEEEEDDEDKYFIDDEGNCYIKTTPKKQKELQKKLKQAAAKPGKATRSVVSTATNKSINLRPAKSTPKATTSKPPPEPKAISVRPARAA",stoichiometry N,[3],~4
"dCTCF NTD 125–180 (domain or fragment, Drosophila melanogaster, UniProt Q9VS55 125-180, looked up, dCTCF, Drosophila melanogaster, residues 125-180; source: E. coli BL21, purified (Ni-NTA)) STATNKSINLRPAKSTPKATTSKPPPEPKAISVRPARAAAAKAKQSAMPPPPALVV",binding result,[3],binds
"dCTCF NTD 70–163 (domain or fragment, Drosophila melanogaster, UniProt Q9VS55 70-163, looked up, dCTCF, Drosophila melanogaster, residues 70-163; source: E. coli BL21, purified (Ni-NTA)) HAEEAEEEEEDDEDKYFIDDEGNCYIKTTPKKQKELQKKLKQAAAKPGKATRSVVSTATNKSINLRPAKSTPKATTSKPPPEPKAISVRPARAA",binding result,[3],binds
